Bounds are passed on as bounds.

In this assay the target is EGF receptor (UniProt P00533). Briefly: cell-based or functional assay.

“IFNα-2a (R144A) - (Gly4Ser)7 - EGF chimeric activator (from UniProt P01563 24-188; P01133 23-1207)” had an inhibition of proliferation and survival of Daudi-EGFR cells (WST-1), potency against the corresponding IFNα2a mutant alone of 100 fold. In the case of “IFNα-2a (R149A) - (Gly4Ser)7 - EGF chimeric activator (from UniProt P01563 24-188; P01133 23-1207)”, the specificity of IFNα signaling, Daudi-EGFR against parental Daudi cells is over 20 fold.

Source of the values: patent US20170306030A1.
